From publication PMC12421854

What was measured:
[1] = target: ForJ (Streptomyces formicae); test: mass photometry; ReFeyn mass photometry of purified ForJ reduced with TCEP; monomers to dimer
[2] = target: ForJ (Streptomyces formicae); test: non-reducing SDS-PAGE; purified ForJ exposed to increasing H2O2; no beta-mercaptoethanol and no boiling before loading; dimers to dimer of dimers
[3] = target: ForJ (Streptomyces formicae); test: non-reducing SDS-PAGE; purified ForJ exposed to increasing DTT; no beta-mercaptoethanol and no boiling before loading; monomers and dimers
[4] = target: ForJ (Streptomyces formicae); test: mass photometry; ReFeyn mass photometry of purified ForJ without reducing agent (oxidized); 38 kDa and 76 kDa states both present; dimers to dimer of dimers

Question: ForJ (natural protein) was tested. Which stoichiometry N [1] did it give?
Answer: The stoichiometry N was 2.

Question: And the stoichiometry N [2]?
Answer: Its stoichiometry N is 4.

Question: And the stoichiometry N [3]?
Answer: The stoichiometry N was 2.

Question: What about the stoichiometry N [4] of the same substance?
Answer: Its stoichiometry N is 4.
